Data: US20180044653A1, “Mutant Yeast Strain Capable of Degrading Cellobiose” (Institut National de la Recherche Agronomique, priority 2015, published 2018)

Assays:
Test in all cases: Enzyme kinetics on glycoside substrates, released glucose, Michaelis-Menten (Bgl1-His6)
Format in all cases: biochemical, Yarrowia lipolytica
Conditions in all cases: other: apparent, 0.120 nM Bgl1-His6, mean of three experiments, SD below 10%, pH 7.4, 28.0 °C
[1] = substrate: CCCCCCCCO[C@@H]1O[C@H](CO)[C@@H](O)[C@H](O)[C@H]1O
Experimental: (§1) Y. lipolytica JMY1212 overproducing Bgl1-His6 and Bgl2 were grown in 200 mL YTD medium at 130 rpm, 28° C. for 36 h before centrifugation at 8,000×g for 5 min. For purification of Bgl1-His6, the cell pellet was washed, suspended in 50 mL phosphate buffer (50 mM, pH 7.4) and homogenized over a 3-min period using a MP FastPrep-24 Instrument. After centrifugation (8,000×g for 5 min at 4° C.), the supernatant was applied to 2 mL of TALON Metal Affinity Resin (Clontech Takara-Bio, Kyoto, Japan) and protein was eluted using imidazole buffer according to the manufacturer's instructions.
(§2) When using aryl-substrates, the standard assay method was employed, simply replacing pNPGlc by another substrate as appropriate. For oligosaccharides, the release of glucose was quantified using an enzyme kit (D-Fructose/D-Glucose Assay Kit, liquid stable, Megazyme). […] Initial rates were fitted to the Michaelis-Menten kinetic equation using a nonlinear regression (SigmaPlot 10) to extract the apparent KM and kcat (Segel, 1993).

[2] = substrate: OC[C@H]1O[C@@H](OC[C@H]2OC(O)[C@H](O)[C@@H](O)[C@@H]2O)[C@H](O)[C@@H](O)[C@@H]1O
Experimental: as §1, §2

[3] = substrate: OC[C@H]1O[C@@H](O[C@H]2C(O)O[C@H](CO)[C@@H](O)[C@@H]2O)[C@H](O)[C@@H](O)[C@@H]1O
Experimental: as §1, §2

[4] = substrate: OC[C@H]1O[C@@H](O[C@H]2[C@H](O)[C@@H](CO)OC(O)[C@@H]2O)[C@H](O)[C@@H](O)[C@@H]1O
Experimental: as §1, §2

[5] = substrate: OC[C@H]1O[C@@H](O[C@H]2[C@H](O)[C@@H](O)C(O)O[C@@H]2CO)[C@H](O)[C@@H](O)[C@@H]1O
Experimental: as §1, §2

[6] = substrate: OC[C@H]1O[C@@H](O[C@H]2[C@H](O)[C@@H](O)[C@H](O[C@H]3[C@H](O)[C@@H](O)C(O)O[C@@H]3CO)O[C@@H]2CO)[C@H](O)[C@@H](O)[C@@H]1O
Experimental: as §1, §2

[7] = substrate: OC[C@H]1O[C@@H](O[C@H]2[C@H](O)[C@@H](O)[C@H](O[C@H]3[C@H](O)[C@@H](O)[C@H](O[C@H]4[C@H](O)[C@@H](O)C(O)O[C@@H]4CO)O[C@@H]3CO)O[C@@H]2CO)[C@H](O)[C@@H](O)[C@@H]1O
Experimental: as §1, §2

[8] = substrate: OC[C@H]1O[C@@H](O[C@H]2[C@H](O)[C@@H](O)[C@H](O[C@H]3[C@H](O)[C@@H](O)[C@H](O[C@H]4[C@H](O)[C@@H](O)[C@H](O[C@H]5[C@H](O)[C@@H](O)C(O)O[C@@H]5CO)O[C@@H]4CO)O[C@@H]3CO)O[C@@H]2CO)[C@H](O)[C@@H](O)[C@@H]1O
Experimental: as §1, §2

[9] = substrate: OC[C@H]1O[C@@H](O[C@H]2[C@H](O)[C@@H](O)[C@H](O[C@H]3[C@H](O)[C@@H](O)[C@H](O[C@H]4[C@H](O)[C@@H](O)[C@H](O[C@H]5[C@H](O)[C@@H](O)[C@H](O[C@H]6[C@H](O)[C@@H](O)C(O)O[C@@H]6CO)O[C@@H]5CO)O[C@@H]4CO)O[C@@H]3CO)O[C@@H]2CO)[C@H](O)[C@@H](O)[C@@H]1O
Experimental: as §1, §2

B1: Yarrowia lipolytica β-glucosidase Bgl1-His6 (YALI_BGL1, YALI0F16027g, SEQ ID NO: 4; mature SEQ ID NO: 1), His6-tagged (Yarrowia lipolytica CLIB122) (protein)
chain: SPDWYPTPEIGSITSDWADALGESMDILAQLTLPEKVNITTGTGWRGGQCVGNTGAVPRLGIKGLCLQDGPLGVRFADFVNVFPCQNAMAATFDRILVHQRGTAIGRQSRLKGVDVHLGPVVGPLGRHATGGRNWEGFSPDPYLSGKLAFEAILGVQEEGVLATIKHFIGNEQEHYRRAEEWRDGFGFKDLKDAVSSNIEDRALHELYMWPFADAVRANVGSVMCSYNYVNGTQACQNSDLLNGKLKSELGFQGFVMSDWFAQGSGVSNALAGMDMSMPGNDVDELETVFWGEQLTRMVANGTLPEARLDDMVLRILTPLIYFGIDDRTPNFSSFVDTTVGSPHPAAKHSKKVKDVITNYHLDVRDQFAANVALDSARGAVVLLFNDGILPLKNISAIGVFGVGSRLGPNGAVCGENMQCSDGALIEGWGSGTAYPTEYESPYEALHKKASLLEVSVTGTTESWDMRLPLELAGDTDVNIVYVLANSGESTANVDKNLGDRRNVSLWHNGDELINTVASQGQTVVVVTTVGQVDMTAWLNHPNISAVLLTAPAGDYGGKAIADVLFGEVNPSGKLPYTIAANTSDYIPIVTKIPRDGAPQSDFVEGIYLDYKWYDKFERTPLYEFGYGLSYTTYSFSNLHLDVKEISEFLPPRPVPVQVTKPKMTNIDIEDLYVPNDFKMIDGLVYPWILNASAPLADSQTQFPFANGAGHVSDASGGVGGHPWLWSNAVTVTHNTTNCGDVAGRVVSQLYVAFPETLIDSPPVQLRGFDKSKLLNPGESQMTEYNLNWRDLAIWDVELQSWRVQRGEYSVYIGHSSREFELCETFTL
For B1, the Km [1] was 860 µM, the kcat [1] was 32.8 s⁻¹ and the kcat/Km [1] was 38100 M⁻¹ s⁻¹. The Km [2] was 1160 µM, the kcat [2] was 43.6 s⁻¹ and the kcat/Km [2] was 37600 M⁻¹ s⁻¹. For the same protein, the Km [3] was 2250 µM, the kcat [3] was 28.4 s⁻¹ and the kcat/Km [3] was 14800 M⁻¹ s⁻¹. The Km [4] was 680 µM, the kcat [4] was 75.6 s⁻¹ and the kcat/Km [4] was 111000 M⁻¹ s⁻¹. The Km [5] was 260 µM, the kcat [5] was 21.1 s⁻¹ and the kcat/Km [5] was 81100 M⁻¹ s⁻¹. The Km [6] was 430 µM, the kcat [6] was 20.5 s⁻¹ and the kcat/Km [6] was 47700 M⁻¹ s⁻¹. For the same protein, the Km [7] was 1890 µM, the kcat [7] was 30.9 s⁻¹ and the kcat/Km [7] was 16300 M⁻¹ s⁻¹. The Km [8] was 2180 µM, the kcat [8] was 29.5 s⁻¹ and the kcat/Km [8] was 13500 M⁻¹ s⁻¹. For the same protein, the Km [9] was 3010 µM, the kcat [9] was 31.5 s⁻¹ and the kcat/Km [9] was 10500 M⁻¹ s⁻¹.
